In paper PMC8102066, “Differences in interactions between transmembrane domains tune the activation of metabotropic glutamate receptors” (eLife, 2021):

Legend:
[1] = target: SNAP-mGluR2-TMD-I779A; assay: SiMPull; settings: SNAP-tagged constructs labeled with LD555; 6 movies; parent: est. 80; read off a plot
[2] = target: SNAP-mGluR2-TMD-I779A; assay: SiMPull; settings: SNAP-tagged constructs labeled with LD555; 6 movies; parent: est. 80; read off a plot; remark: listed apart in the source
[3] = target: SNAP-mGluR3-TMD-F690A; assay: SiMPull; settings: SNAP-tagged constructs labeled with LD555; 6 movies; parent: est. 46; read off a plot
[4] = target: HA-SNAP-mGluR3-TMD (rat); assay: single-molecule pulldown (SiMPull) with photobleaching step counting; HEK 293T cells surface-labelled with BG-LD555, lysed in 1.2% IGEPAL, diluted in 0.1% IGEPAL buffer; HA-SNAP constructs captured by biotinylated anti-HA antibody on NeutrAvidin/PEG slides; TIRF; percent dimerization = two-step bleaching min-max normalised (5% background, 55% for full-length mGluR2); in some experiments saturating ligands (TASP, MNI 137, glutamate, LY34) kept from cell dissociation on
[5] = target: SNAP-mGluR2-TMD-P778A-I779A; assay: SiMPull; settings: SNAP-tagged constructs labeled with LD555; 6 movies; parent: est. 80; read off a plot
[6] = target: SNAP-mGluR3-TMD-3xTM4_W; assay: SiMPull; settings: SNAP-tagged constructs labeled with LD555; 6 movies; parent: est. 46; read off a plot
[7] = target: SNAP-mGluR2-TMD-3xTM4_W; assay: SiMPull; settings: SNAP-tagged constructs labeled with LD555; 9 movies; parent: est. 83; read off a plot
[8] = target: SNAP-mGluR3-TMD-S686A; assay: SiMPull; settings: SNAP-tagged constructs labeled with LD555; 6 movies; parent: est. 46; read off a plot
[9] = target: SNAP-mGluR3-TMD-G694A; assay: SiMPull; settings: SNAP-tagged constructs labeled with LD555; 6 movies; parent: est. 46; read off a plot
[10] = target: SNAP-mGluR2-TMD-I779W; assay: SiMPull; settings: SNAP-tagged constructs labeled with LD555; 6 movies; parent: est. 80; read off a plot
[11] = target: SNAP-mGluR2-TMD-P778A; assay: SiMPull; settings: SNAP-tagged constructs labeled with LD555; 6 movies; parent: est. 80; read off a plot
[12] = target: HA-SNAP-mGluR2-TMD (rat); assay: single-molecule pulldown (SiMPull) with photobleaching step counting; HEK 293T cells surface-labelled with BG-LD555, lysed in 1.2% IGEPAL, diluted in 0.1% IGEPAL buffer; HA-SNAP constructs captured by biotinylated anti-HA antibody on NeutrAvidin/PEG slides; TIRF; percent dimerization = two-step bleaching min-max normalised (5% background, 55% for full-length mGluR2); in some experiments saturating ligands (TASP, MNI 137, glutamate, LY34) kept from cell dissociation on
[13] = target: SNAP-mGluR3-TMD-I788A; assay: SiMPull; settings: SNAP-tagged constructs labeled with LD555; 6 movies; parent: est. 50; read off a plot

Sequence of HA-SNAP-mGluR3-TMD (domain or fragment) (P31422 23-879): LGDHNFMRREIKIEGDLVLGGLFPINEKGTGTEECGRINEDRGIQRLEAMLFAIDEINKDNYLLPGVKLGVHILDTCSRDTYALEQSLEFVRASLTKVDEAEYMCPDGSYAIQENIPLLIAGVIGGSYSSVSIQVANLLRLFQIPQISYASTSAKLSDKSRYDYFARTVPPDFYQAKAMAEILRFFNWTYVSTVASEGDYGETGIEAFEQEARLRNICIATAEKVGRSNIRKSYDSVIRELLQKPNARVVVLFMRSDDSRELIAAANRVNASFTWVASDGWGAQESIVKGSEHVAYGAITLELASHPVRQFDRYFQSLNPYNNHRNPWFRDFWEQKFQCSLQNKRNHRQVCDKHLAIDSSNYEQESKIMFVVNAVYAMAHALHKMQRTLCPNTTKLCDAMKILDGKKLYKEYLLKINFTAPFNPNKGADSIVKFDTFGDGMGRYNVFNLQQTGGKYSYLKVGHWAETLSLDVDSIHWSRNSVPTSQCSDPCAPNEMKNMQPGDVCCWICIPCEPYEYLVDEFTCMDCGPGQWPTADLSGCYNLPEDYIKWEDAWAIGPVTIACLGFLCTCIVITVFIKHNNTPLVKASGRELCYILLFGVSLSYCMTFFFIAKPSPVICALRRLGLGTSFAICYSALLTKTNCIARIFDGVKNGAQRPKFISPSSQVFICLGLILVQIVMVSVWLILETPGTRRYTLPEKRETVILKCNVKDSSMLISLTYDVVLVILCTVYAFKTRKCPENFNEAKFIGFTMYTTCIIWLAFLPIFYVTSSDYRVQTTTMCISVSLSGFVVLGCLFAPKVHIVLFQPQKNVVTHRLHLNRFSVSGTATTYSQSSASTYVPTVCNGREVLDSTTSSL
Sequence of HA-SNAP-mGluR2-TMD (domain or fragment) (P31421 19-872): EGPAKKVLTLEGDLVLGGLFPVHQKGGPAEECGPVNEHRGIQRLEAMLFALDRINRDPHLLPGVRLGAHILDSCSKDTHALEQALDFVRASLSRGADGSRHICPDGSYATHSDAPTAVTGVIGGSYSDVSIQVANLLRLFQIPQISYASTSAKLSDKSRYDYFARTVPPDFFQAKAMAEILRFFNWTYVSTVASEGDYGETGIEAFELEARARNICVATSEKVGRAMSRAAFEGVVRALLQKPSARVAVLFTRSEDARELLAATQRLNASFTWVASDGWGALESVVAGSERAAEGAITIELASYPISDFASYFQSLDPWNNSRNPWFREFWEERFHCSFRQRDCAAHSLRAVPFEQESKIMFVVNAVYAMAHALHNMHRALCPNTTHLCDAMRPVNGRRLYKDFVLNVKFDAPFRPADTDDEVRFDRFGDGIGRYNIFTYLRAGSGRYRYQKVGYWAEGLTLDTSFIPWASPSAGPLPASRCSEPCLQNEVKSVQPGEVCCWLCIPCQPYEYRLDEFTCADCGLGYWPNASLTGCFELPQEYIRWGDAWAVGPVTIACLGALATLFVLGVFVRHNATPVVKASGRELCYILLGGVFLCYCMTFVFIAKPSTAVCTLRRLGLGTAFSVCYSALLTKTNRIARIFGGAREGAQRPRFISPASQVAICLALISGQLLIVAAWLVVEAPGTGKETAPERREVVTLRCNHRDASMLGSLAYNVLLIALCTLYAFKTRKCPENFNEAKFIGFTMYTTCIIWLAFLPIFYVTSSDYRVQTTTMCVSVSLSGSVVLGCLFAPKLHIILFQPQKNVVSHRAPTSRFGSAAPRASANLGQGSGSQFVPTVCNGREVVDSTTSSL

HA-SNAP-mGluR2-TMD I779A gave an other: percent dimerization [1] of 57% and an other: percent dimerization [2] of 57%.
With HA-SNAP-mGluR3-TMD F690A the other: percent dimerization [3] was 64%.
HA-SNAP-mGluR3-TMD (domain or fragment) gave a percent of spots bleaching in >3 steps [4] of 2.9%, a percent of spots bleaching in one step [4] of 69.1% and a percent of spots bleaching in two steps [4] of 27.9%.
HA-SNAP-mGluR2-TMD P778A; I779A showed an other: percent dimerization [5] of 57%.
In the case of HA-SNAP-mGluR3-TMD S686W; F690W; G684W, the other: percent dimerization [6] is reported as 45%.
Substance HA-SNAP-mGluR2-TMD A677W; A681W; A685W has an other: percent dimerization [7] of 39%.
HA-SNAP-mGluR3-TMD S686A gave an other: percent dimerization [8] of 72%.
HA-SNAP-mGluR3-TMD G694A was tested, and the other: percent dimerization [9] was 62%.
For HA-SNAP-mGluR2-TMD I779W, the other: percent dimerization [10] was 61%.
Work on HA-SNAP-mGluR2-TMD P778A yielded an other: percent dimerization [11] of 64%.
HA-SNAP-mGluR2-TMD (domain or fragment) was tested, and the percent of spots bleaching in >3 steps [12] was 4.5%, the percent of spots bleaching in one step [12] was 54.1% and the percent of spots bleaching in two steps [12] was 41.4%.
HA-SNAP-mGluR3-TMD I788A was tested, and the other: percent dimerization [13] was 38%.
